Data on 72 sequences can be found in the supplement of paper PMC10567573.

± gives the standard deviation.

This data set can be described thus: protein stability index of a GFP-peptide fusion (GPS, HEK-293T) (PSI 1-6); higher = more stable.
[1] abbreviates: treatment: DMSO, c terminus: a fixed tail appended.
Setting [2] is: treatment: MLN4924 1 uM, 8 h, c terminus: a fixed tail appended.
Setting [3] is: treatment: DMSO, c terminus: native.
Setting [4] is: treatment: MLN4924 1 uM, 8 h, c terminus: native.
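Further: 24-mer peptide tiles fused after GFP, lentivirally expressed, FACS-sorted into six equal bins by GFP/DsRed ratio, decoded by Illumina sequencing, PSI is the read-weighted mean bin number.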

Sequence SHQYDRIYCGAGVQKDHENYMKIL [PCMTD1] displayed a protein stability index under setting [1] of 2.38 ± 0.16 and a protein stability index under setting [2] of 2.39 ± 0.2.

On to QVYLSHTAWTEACQVEVRLLLAYN [INTS4], for which the protein stability index is, setting by setting: under setting [1], 3.15 ± 0.51; under setting [2], 3.09 ± 0.19.

As for QDDLENPMLETASKLLLSGTADGA [ANKRD17], the protein stability index under setting [1] is 5.14 ± 0.33 and the protein stability index under setting [2] turned out to be 5.2 ± 0.36.

As for NVEMDATPGIDLTRVLAEMREQYE [KRT13], the protein stability index was determined as 4.47 ± 0.17 under setting [1] and 4.75 ± 0.32 under setting [2].

For the sequence AEGTTGLAPAGQTSEESRPRLSQL [TNXB], the protein stability index amounted to 5.66 ± 0.21 under setting [1] and 5.36 ± 0.25 under setting [2].

On to IKEQLIQEGLLDRCVSFQARFAEK [HDAC6], for which the protein stability index by setting is: under setting [1], 2.81 ± 0.19; under setting [2], 2.73 ± 0.36.

As for AAQEGHLELVKYLLAAGANVHATT [ANKRD17], the protein stability index stood at 2.34 ± 0.3 under setting [1] and 2.74 ± 0.35 under setting [2].

Regarding AGQRGEPGPKGDPGEKSHWGEGLH [EMID1], the protein stability index under setting [1] came out at 4.34 ± 0.36.

With LSLIGVRVDVDTYLTSQLPPLREI [NFE2L1], the protein stability index was determined as 3.12 ± 1.1 under setting [1] and 2.57 ± 0.58 under setting [2].

As to LPVSSPEPPPALPPAADAPVTQIG [TRIM55], the protein stability index runs as follows: under setting [1], 5.23 ± 0.13; under setting [2], 5.33 ± 0.12.

Turning to GGYFKARLKFPIDYPYSPPAFRFL [CDC34], the protein stability index was 2.82 ± 0.33 under setting [1] and 2.58 ± 0.51 under setting [2].

In the case of VSRMRTQRAFSIQTPEQYYFCYKA [PTPN9], the protein stability index by setting is: under setting [1], 2.56 ± 0.18; under setting [2], 2.43 ± 0.27.

Turning to LRVEFAAENYLSGGGPGDGGGADT [FBXO33], the protein stability index reads like this: under setting [1], 4.16 ± 0.18; under setting [2], 4.13 ± 0.26.

In the case of ILPKELQGWVREHCPESGEEAVIL [ZSCAN9], the protein stability index came to 2.74 ± 0.35 under setting [1] and 2.95 ± 0.47 under setting [2].

LRRVLDELTLSKTDLEMQIESLNE [KRT13] displayed a protein stability index under setting [1] of 3.12 ± 0.098 and a protein stability index under setting [2] of 2.98 ± 0.068.

For the sequence ESGDEVPVELYTAFQHTPTSITLT [KMT2E], the protein stability index runs as follows: under setting [1], 2.73 ± 0.97; under setting [2], 3.65 ± 0.62.

ELAEHRCHPVERGIKSKEAEEYRL [PSD2]: the protein stability index was determined as 4.89 ± 0.25 under setting [1] and 4.64 ± 0.36 under setting [2].

As to QFVSSVPRCDLVDLGEGKICFCCE [FAM189A2], the protein stability index is, setting by setting: under setting [1], 2.67 ± 0.37; under setting [2], 2.98 ± 0.6.

On to FKLKPLSNKTATDDTGGKDPRNV [PLD5], for which the protein stability index is, setting by setting: under setting [3], 4.78 ± 0.17; under setting [4], 4.89 ± 0.19.

For the sequence STQMFQTKRCFRLAPTFSNLLLQP [SMG5], the protein stability index reads like this: under setting [1], 2.16 ± 0.4; under setting [2], 2.12 ± 0.2.

On to IQNSDNDLPVVQGSSSFSLKGYPS [TRIM29], for which the protein stability index reads like this: under setting [1], 3.91 ± 0.29; under setting [2], 4.07 ± 0.2.

With RAVLKYLYTGELDENERDLMHIAH [RHOBTB2], the protein stability index was 2.34 ± 0.13 under setting [1] and 2.49 ± 0.27 under setting [2].

For the sequence ADSMLMQGSRGLTDQAIFYAVTPL [HDAC6], the protein stability index runs as follows: under setting [1], 2.54 ± 0.39; under setting [2], 2.46 ± 0.44.

Turning to KGGISETRIEKRIVITGDADIDHD [EPB41L3], the protein stability index is, setting by setting: under setting [1], 5.31 ± 0.2; under setting [2], 5.16 ± 0.51.

Turning to GPWSCENFNPLLVAGGVAVAAIAL [CEND1], the protein stability index amounted to 3.34 ± 0.4 under setting [1] and 2.58 ± 0.9 under setting [2].

For TLVSSGSGTMGAAKVTGEVLDILT [FLOT1], the protein stability index by setting is: under setting [1], 2.97 ± 0.44; under setting [2], 2.91 ± 0.49.

On to SELSESAFGYFITACAVIILTIIC [SLC29A1], for which the protein stability index under setting [1] amounted to 2.03 ± 0.21 and the protein stability index under setting [2] is 2.12 ± 0.39.

Take IRVMVHGRNHTPFLGHHSFSVRPG [SCNN1D]: the protein stability index runs as follows: under setting [1], 2.55 ± 0.24; under setting [2], 2.85 ± 0.88.

In the case of LPGWEDIESKIPLNMEEPPVEEPE [SLC19A2], the protein stability index under setting [1] was determined as 5.51 ± 0.32 and the protein stability index under setting [2] is 5.24 ± 0.23.

On to MDVTSRCTLGDPNKLPEGVPQPAR [KLHL20], for which the protein stability index is, setting by setting: under setting [1], 4.64 ± 0.28; under setting [2], 4.72 ± 0.23.

For the sequence LKDDIYIRYQSFNNQSDLEKEMQK [PRIM1], the protein stability index runs as follows: under setting [1], 4.41 ± 0.08; under setting [2], 4.27 ± 0.26.

On to TAAGLMHTFNAHAATDITGFGILG [SEPHS2], for which the protein stability index under setting [1] worked out at 2.43 ± 0.51 and the protein stability index under setting [2] is 2.44 ± 0.074.

Regarding GEGTFGKVVECLDHARGKSQVALK [CLK3], the protein stability index is, setting by setting: under setting [1], 4.45 ± 0.33; under setting [2], 4.66 ± 0.082.

On to PTAATTQNPVLSKLLMADQDSPLD [LCOR], for which the protein stability index under setting [1] stood at 4.9 ± 0.17 and the protein stability index under setting [2] was determined as 4.87 ± 0.19.

Take LEEVNDEGYTPLMEAAREGHEEMV [ANKRD17]: the protein stability index is, setting by setting: under setting [1], 5.49 ± 0.08; under setting [2], 5.52 ± 0.23.

Consider AVNQEAMNNAQRIEKWVILEKDFS [ACSBG2], for which the protein stability index under setting [1] was found to be 3.16 ± 0.31 and the protein stability index under setting [2] was 3.47 ± 0.46.

As for VVSSEGRQSRRQSVSRFFADSGAD [FBF1], the protein stability index worked out at 4.25 ± 0.11 under setting [1] and 4.44 ± 0.31 under setting [2].

For the sequence EVLDGVEDAEGEEEEEEEEEEEDD [FKBP8], the protein stability index reads like this: under setting [1], 5.46 ± 0.38; under setting [2], 5.69 ± 0.23.

Take LPGRKLVSSAVSPSIIPQEDPSQQ [INTS4]: the protein stability index under setting [1] worked out at 5.12 ± 0.12 and the protein stability index under setting [2] came to 5.02 ± 0.32.

Take FNMMEQKKRVSMILQSPAFCEELE [ADD1]: the protein stability index under setting [1] was 3.27 ± 0.088 and the protein stability index under setting [2] is 3.4 ± 0.11.

Regarding KLHEIFRGLHEDLQGVPERLLGTA [VTI1B], the protein stability index under setting [1] turned out to be 2.48 ± 0.3 and the protein stability index under setting [2] was 2.72 ± 0.74.

SITFTTGLEAPRDLEAKEVTPRTA [TNXB] came in with a protein stability index under setting [1] of 5.22 ± 0.37 and a protein stability index under setting [2] of 5.16 ± 0.3.

As to WNDLRPKLSCLFAGPHSTLTPPCS [SNX8], the protein stability index was 2.27 ± 0.29 under setting [1] and 2.27 ± 0.39 under setting [2].

Turning to YLQIFATRRSCIDESQISAEEAED [FAM189A2], the protein stability index stood at 3.71 ± 0.14 under setting [1] and 3.92 ± 0.32 under setting [2].

With DVPTIQEKVNEGKYRSYEEFKADA [ZMYND11], the protein stability index is, setting by setting: under setting [1], 5.21 ± 0.3; under setting [2], 5.26 ± 0.15.

In turn, IRMIVRGTLGSCSSSSECLEDSTM [PLK2] had a protein stability index under setting [1] of 2.3 ± 0.3 and a protein stability index under setting [2] of 2.25 ± 0.12.

For the sequence FFMTATQYFTNRLDMSQNVSLVTA [SLC29A1], the protein stability index by setting is: under setting [1], 3.04 ± 0.4; under setting [2], 2.92 ± 0.47.

For DVVCKNQDELRNRSVKVICLGSLA [FAN1], the protein stability index is, setting by setting: under setting [1], 2.72 ± 0.26; under setting [2], 2.98 ± 0.2.

For YVKVFEHFLENLDKSRKGELLKKS [PRIM1], the protein stability index under setting [1] was determined as 1.96 ± 0.31 and the protein stability index under setting [2] stood at 2.09 ± 0.48.

In the case of CFRSLAASSPSIRQKKLMHKLQEE [CCDC70], the protein stability index runs as follows: under setting [1], 3.22 ± 0.15; under setting [2], 3.33 ± 0.046.

As for SRIKGWWVFHHYVSTFLSGVMLTW [TMEM120A], the protein stability index is, setting by setting: under setting [1], 2.55 ± 0.24; under setting [2], 2.37 ± 0.36.

For the sequence HQRSSSESYTQSFQSRKPFFSWW [PI4K2A], the protein stability index by setting is: under setting [3], 3.41 ± 0.27; under setting [4], 3.7 ± 0.3.

KEAVQNERDRISTRRSSYEDSSLP [HNF4A]: the protein stability index was found to be 5.07 ± 0.31 under setting [1] and 5.14 ± 0.25 under setting [2].

On to ALRLEVRAGPDSAGIALYSHEDVC [CARM1], for which the protein stability index by setting is: under setting [1], 2.61 ± 0.64; under setting [2], 2.55 ± 0.56.

Consider RNRPSFDAILYYYQSGGRIRRPVN [KCNA3], for which the protein stability index was 2.3 ± 0.22 under setting [1] and 2.58 ± 0.31 under setting [2].

For the sequence GGGVATSPMLIVFHGKYSTINPLW [GLT8D2], the protein stability index amounted to 3.02 ± 1.3 under setting [1] and 2.36 ± 0.56 under setting [2].

As for RAHPPQRPASSGGAHTLVNHGYAE [KCNA3], the protein stability index under setting [1] is 4.12 ± 0.13 and the protein stability index under setting [2] is 3.94 ± 0.3.

As to SLYGENSNSLSSAEPLKEDKPVTG [ATF6], the protein stability index runs as follows: under setting [1], 4.54 ± 0.1; under setting [2], 4.58 ± 0.22.

Consider YKPPALKKSNSPGTASSGSSRLPQ [ZC2HC1A], for which the protein stability index is, setting by setting: under setting [1], 4.46 ± 0.079; under setting [2], 4.51 ± 0.2.

The sequence GIFQAMCLLICAEMYQVSRLQHIC [RHOBTB3] came in with a protein stability index under setting [1] of 2.99 ± 0.59 and a protein stability index under setting [2] of 3.09 ± 0.34.

TWRHRETLIIAVLVSASIANLWLW [FATE1]: the protein stability index was 3.2 ± 0.37 under setting [1] and 2.77 ± 0.26 under setting [2].

Regarding PCVIESLRTLDKKTFYKTADISQM [TAF7L], the protein stability index under setting [1] is 2.33 ± 0.34 and the protein stability index under setting [2] stood at 2.41 ± 0.23.

Take MVAHDETGGLLPIKRTIRVLDVNN [NET1]: the protein stability index was 3.27 ± 0.21 under setting [1] and 3.35 ± 0.25 under setting [2].

Take LENVLDPDSFYELKSQPLPLRSSL [TFE3]: the protein stability index came out at 3.4 ± 0.27 under setting [1] and 3.49 ± 0.21 under setting [2].

LSQAPAEGPDLVPAALGSLTTAQI [HES6]: the protein stability index is 4.35 ± 0.32 under setting [1] and 4.36 ± 0.61 under setting [2].

With PYAMKPIDYYTETKILQERAVLGA [NSDHL], the protein stability index under setting [1] worked out at 2.85 ± 0.14 and the protein stability index under setting [2] amounted to 3.06 ± 0.18.

In the case of PPLPGDMSTGPIAESWCYTQVKVV [SPOPL], the protein stability index came out at 2.27 ± 0.15 under setting [1] and 2.38 ± 0.33 under setting [2].

In the case of DRGSCVSTTEGIQLAKELGATYLE [RHOBTB3], the protein stability index runs as follows: under setting [1], 4.45 ± 0.14; under setting [2], 4.47 ± 0.24.

For the sequence LIYVVIDLPINVFKLLAGRWPFDH [EDNRA], the protein stability index stood at 2.27 ± 1 under setting [1] and 3.04 ± 0.23 under setting [2].

In turn, ESSDDDSEEAPSTSGMGFHAPKIG [SDE2] returned a protein stability index under setting [1] of 5.51 ± 0.23 and a protein stability index under setting [2] of 5.41 ± 0.19.

IHQETVSKNGNGLKNTPRFKRRRV [PCMTD2]: the protein stability index came to 4.41 ± 0.27 under setting [1] and 4.63 ± 0.27 under setting [2].

Take GGGGGGGGKSGGIVISPFRLEELT [CCDC6]: the protein stability index reads like this: under setting [1], 3.34 ± 0.12; under setting [2], 3.59 ± 0.41.
